pKd: −log10 of the molar value.
Key:
[1] = molecular target: skelemin tandem IgC2 domains 4 and 5 with the interconnecting linker, C1354S (mouse); assay: ITC
[2] = molecular target: integrin β3 cytoplasmic tail (UniProt P05106); assay: ITC
Sequence of integrin β3 cytoplasmic tail (P05106 742-788): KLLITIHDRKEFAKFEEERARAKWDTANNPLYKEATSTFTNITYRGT

dH [1]: -0.382 kcal/mol | stoichiometry N [1]: 1.26 | pKd [2]: 5.24
Substance: integrin αIIb cytoplasmic tail peptide (starting from W988)

— PMC4222533
